Test [1] has as its target T1, placental growth factor (PLGF) (UniProt P49763-2 21-149, limits assumed).
T1 construct: also called P1GF
T1 sequence (looked up): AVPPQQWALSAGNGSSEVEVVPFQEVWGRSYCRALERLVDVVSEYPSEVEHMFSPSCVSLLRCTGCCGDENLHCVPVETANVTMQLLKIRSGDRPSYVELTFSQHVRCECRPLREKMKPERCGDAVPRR
The test can be described thus: ligand-receptor binding competition assay, PlGF binding to VEGFR1; N-terminal VD.

For the next test, the target named is biotinylated VEGF (UniProt P15692-4 27-191, limits assumed, biotinylated). As to the kind of experiment: VEGF capture ELISA, DVD-Ig captured by anti-human Fc, biotinylated VEGF.
Test [2] has as its target T2, biotin-labeled human DLL4 extracellular domain (human, UniProt Q9NR61 27-529, biotin-labeled).
T2 construct: extracellular domain
The test can be described thus: DLL4 capture ELISA, DVD-Ig captured by anti-human Fc, biotin-labeled human DLL4 ECD.

Test [3] has as its target T3, human DLL4 extracellular domain (human, UniProt Q9NR61 27-529, biotin label in the Notch-1 competition ELISA (sites not given)). The test can be described thus: cell-based or functional assay.
The target in test [4] is T4, human DLL4 on 293G-human DLL4 cells (human, UniProt Q9NR61 27-685).
T4 construct: whole, on cells; no method paragraph describes this FACS assay
The test can be described thus: FACS: inhibition of Notch1 binding to 293G-human DLL4 cells (competitor Notch1).

Test [5] addresses T3, human DLL4 extracellular domain. As to the kind of experiment: competition ELISA: 14 nM biotin-labelled human DLL4 ECD pre-mixed with DVD-Ig, then on coated human Notch-1 (competitor Notch-1).

B1: DVD589 (bispecific antibody, human IgG1, kappa)
heavy: not shown
light: DIVLTQSPDSLAVSLGERVTMNCKSSQSLLNSGMRKSFLAWYQQKPGQSPKLLIYWASTRESGVPDRFTGSGSGTDFTLTISSVQAEDVAVYYCKQSYHLFTFGSGTKLEIKRTVAAPDIQMTQSPSSLSASVGDRVTITCRASQDVSTAVAWYQQKPGKAPKLLIYSASFLYSGVPSRFSGSGSGTDFTLTISSLQPEDFATYYCQQSYTTPPTFGQGTKVEIKRTVAAPSVFIFPPSDEQLKSGTASVVCLLNNFYPREAKVQWKVDNALQSGNSQESVTEQDSKDSTYSLSSTLTLSKADYEKHKVYACEVTHQGLSSPVTKSFNRGEC
notes: also called DVD589VH; DVD589VL
For B1, the IC50 in test [1] amounted to 2.87 nM.

B2: DVD591 (bispecific antibody, human IgG1, kappa)
heavy: not shown
light: DIVLTQSPDSLAVSLGERVTMNCKSSQSLLNSGMRKSFLAWYQQKPGQSPKLLIYWASTRESGVPDRFTGSGSGTDFTLTISSVQAEDVAVYYCKQSYHLFTFGSGTKLEIKRTVAAPDIQMTQSPSSLSASVGDRVTITCRASQVIRRSLAWYQQKPGKAPKLLIYAASNLASGVPSRFSGSGSGTDFTLTISSLQPEDFATYYCQQSNTSPLTFGQGTKVEIKRTVAAPSVFIFPPSDEQLKSGTASVVCLLNNFYPREAKVQWKVDNALQSGNSQESVTEQDSKDSTYSLSSTLTLSKADYEKHKVYACEVTHQGLSSPVTKSFNRGEC
notes: DVD-Ig, N-term PlGF (AB047) / C-term VEGF (AB071); also called DVD591VH; DVD591VL
Molecule B2 displayed an IC50 in test [1] of 3.23 nM.

B3: DVD470 (bispecific antibody, human IgG1, kappa)
heavy: not shown
light: DIQMTQSPSSLSASVGDRVTITCSASQDISNYLNWYQQKPGKAPKVLIYFTSSLHSGVPSRFSGSGSGTDFTLTISSLQPEDFATYYCQQYSTVPWTFGQGTKVEIKRTVAAPSVFIFPPDIQMTQSPSSLSASVGDRVTITCRASQDVSTAVAWYQQKPGKAPKLLIYSASFLYSGVPSRFSGSGSGTDFTLTISSLQPEDFATTYYCQQSYTGTVTFGQGTKVEIKRTVAAPSVFIFPPSDEQLKSGTASVVCLLNNFYPREAKVQWKVDNALQSGNSQESVTEQDSKDSTYSLSSTLTLSKADYEKHKVYACEVTHQGLSSPVTKSFNRGEC
notes: DVD-Ig, HC long / LC long; DLL4 domain C-terminal; also called VEGF / DLL4 DVD-Ig; DVD470H
On to B3, for which the concentration giving a half-maximal response (EC50) amounted to 0.27 nM with biotinylated VEGF and 0.16 nM in test [2].

B4: DVD482 (bispecific antibody, human IgG1, kappa)
heavy: not shown
light: DIQMTQSPSSLSASVGDRVTITCSASQDISNYLNWYQQKPGKAPKVLIYFTSSLHSGVPSRFSGSGSGTDFTLTISSLQPEDFATYYCQQYSTVPWTFGQGTKVEIKRTVAAPSVFIFPPDIQMTQSPSSLSASVGDRVTITCRASQDVSTAVAWYQQKPGKAPKLLIYSASFLYSGVPSRFSGSGSGTDFTLTISSLQPEDFATTYYCQQSYTGTVTFGQGTKVEIKRTVAAPSVFIFPPSDEQLKSGTASVVCLLNNFYPREAKVQWKVDNALQSGNSQESVTEQDSKDSTYSLSSTLTLSKADYEKHKVYACEVTHQGLSSPVTKSFNRGEC
notes: DVD-Ig, HC short / LC long; DLL4 domain C-terminal; also called VEGF / DLL4 DVD-Ig; DVD482H
For B4, the EC50 is 0.22 nM in the test with biotinylated VEGF and 0.17 nM in test [2].

B5: DVD597 (bispecific antibody, human IgG1, kappa)
heavy: not shown
light: DIVLTQSPDSLAVSLGERVTMNCKSSQSLLNSGMRKSFLAWYQQKPGQSPKLLIYWASTRESGVPDRFTGSGSGTDFTLTISSVQAEDVAVYYCKQSYHLFTFGSGTKLEIKRTVAAPSVFIFPPDIQMTQSPSSLSASVGDRVTITCRASQDVSTAVAWYQQKPGKAPKLLIYSASFLYSGVPSRFSGSGSGTDFTLTISSLQPEDFATYYCQQSYTTPPTFGQGTKVEIKRTVAAPSVFIFPPSDEQLKSGTASVVCLLNNFYPREAKVQWKVDNALQSGNSQESVTEQDSKDSTYSLSSTLTLSKADYEKHKVYACEVTHQGLSSPVTKSFNRGEC
notes: also called DVD597VH; DVD597VL
B5 registered an IC50 in test [1] of 2.94 nM.

B6: DVD476 (bispecific antibody, human IgG1, kappa)
heavy: not shown
light: DIQMTQSPSSLSASVGDRVTITCSASQDISNYLNWYQQKPGKAPKVLIYFTSSLHSGVPSRFSGSGSGTDFTLTISSLQPEDFATYYCQQYSTVPWTFGQGTKVEIKRTVAAPDIQMTQSPSSLSASVGDRVTITCRASQDVSTAVAWYQQKPGKAPKLLIYSASFLYSGVPSRFSGSGSGTDFTLTISSLQPEDFATTYYCQQSYTGTVTFGQGTKVEIKRTVAAPSVFIFPPSDEQLKSGTASVVCLLNNFYPREAKVQWKVDNALQSGNSQESVTEQDSKDSTYSLSSTLTLSKADYEKHKVYACEVTHQGLSSPVTKSFNRGEC
notes: DVD-Ig, HC long / LC short; DLL4 domain C-terminal; also called VEGF / DLL4 DVD-Ig; DVD476H
On to B6, for which the EC50 was 0.22 nM with biotinylated VEGF and 0.21 nM in test [2].

B7: DVD474 (VEGF (AB071) N-terminal / DLL4 (seq. 1) C-terminal DVD-Ig, long HC linker, long LC linker) (bispecific antibody, human IgG1, kappa)
heavy: not shown
light: DIQMTQSPSSLSASVGDRVTITCRASQVIRRSLAWYQQKPGKAPKLLIYAASNLASGVPSRFSGSGSGTDFTLTISSLQPEDFATYYCQQSNTSPLTFGQGTKVEIKRTVAAPSVFIFPPDIQMTQSPSSLSASVGDRVTITCRASQDVSTAVAWYQQKPGKAPKLLIYSASFLYSGVPSRFSGSGSGTDFTLTISSLQPEDFATTYYCQQSYTGTVTFGQGTKVEIKRTVAAPSVFIFPPSDEQLKSGTASVVCLLNNFYPREAKVQWKVDNALQSGNSQESVTEQDSKDSTYSLSSTLTLSKADYEKHKVYACEVTHQGLSSPVTKSFNRGEC
notes: also called DVD474H/DVD474L
Regarding B7, in test [3], the “DVD-Ig Inhibition of sFlt1 (IC50, nM)” value was determined as 0.93 nM. The figures for the IC50 in test [4] and in test [5] were 27.5 nM and 2.3 nM, respectively.

B8: DVD474 (bispecific antibody, human IgG1, kappa)
heavy: not shown
light: DIQMTQSPSSLSASVGDRVTITCRASQVIRRSLAWYQQKPGKAPKLLIYAASNLASGVPSRFSGSGSGTDFTLTISSLQPEDFATYYCQQSNTSPLTFGQGTKVEIKRTVAAPSVFIFPPDIQMTQSPSSLSASVGDRVTITCRASQDVSTAVAWYQQKPGKAPKLLIYSASFLYSGVPSRFSGSGSGTDFTLTISSLQPEDFATTYYCQQSYTGTVTFGQGTKVEIKRTVAAPSVFIFPPSDEQLKSGTASVVCLLNNFYPREAKVQWKVDNALQSGNSQESVTEQDSKDSTYSLSSTLTLSKADYEKHKVYACEVTHQGLSSPVTKSFNRGEC
notes: DVD-Ig, HC long / LC long; DLL4 domain C-terminal; also called VEGF / DLL4 DVD-Ig; DVD474H
As for B8, the EC50 with biotinylated VEGF amounted to 1.65 nM; in test [2] it was 0.14 nM.

B9: DVD486 (bispecific antibody, human IgG1, kappa)
heavy: not shown
light: DIQMTQSPSSLSASVGDRVTITCRASQVIRRSLAWYQQKPGKAPKLLIYAASNLASGVPSRFSGSGSGTDFTLTISSLQPEDFATYYCQQSNTSPLTFGQGTKVEIKRTVAAPSVFIFPPDIQMTQSPSSLSASVGDRVTITCRASQDVSTAVAWYQQKPGKAPKLLIYSASFLYSGVPSRFSGSGSGTDFTLTISSLQPEDFATTYYCQQSYTGTVTFGQGTKVEIKRTVAAPSVFIFPPSDEQLKSGTASVVCLLNNFYPREAKVQWKVDNALQSGNSQESVTEQDSKDSTYSLSSTLTLSKADYEKHKVYACEVTHQGLSSPVTKSFNRGEC
notes: DVD-Ig, HC short / LC long; DLL4 domain C-terminal; also called VEGF / DLL4 DVD-Ig; DVD486H
Turning to B9, the EC50 stood at 0.53 nM with biotinylated VEGF and 0.16 nM in test [2].

B10: DVD583 (bispecific antibody, human IgG1, kappa)
heavy: not shown
light: DIVLTQSPDSLAVSLGERVTMNCKSSQSLLNSGMRKSFLAWYQQKPGQSPKLLIYWASTRESGVPDRFTGSGSGTDFTLTISSVQAEDVAVYYCKQSYHLFTFGSGTKLEIKRTVAAPSVFIFPPDIQMTQSPSSLSASVGDRVTITCRASQVIRRSLAWYQQKPGKAPKLLIYAASNLASGVPSRFSGSGSGTDFTLTISSLQPEDFATYYCQQSNTSPLTFGQGTKVEIKRTVAAPSVFIFPPSDEQLKSGTASVVCLLNNFYPREAKVQWKVDNALQSGNSQESVTEQDSKDSTYSLSSTLTLSKADYEKHKVYACEVTHQGLSSPVTKSFNRGEC
notes: DVD-Ig, N-term PlGF (AB047) / C-term VEGF (AB071); also called DVD583H; DVD583L
In the case of B10, the IC50 in test [1] was found to be 3.25 nM.

B11: DVD599 (bispecific antibody, human IgG1, kappa)
heavy: not shown
light: DIVLTQSPDSLAVSLGERVTMNCKSSQSLLNSGMRKSFLAWYQQKPGQSPKLLIYWASTRESGVPDRFTGSGSGTDFTLTISSVQAEDVAVYYCKQSYHLFTFGSGTKLEIKRTVAAPSVFIFPPDIQMTQSPSSLSASVGDRVTITCRASQVIRRSLAWYQQKPGKAPKLLIYAASNLASGVPSRFSGSGSGTDFTLTISSLQPEDFATYYCQQSNTSPLTFGQGTKVEIKRTVAAPSVFIFPPSDEQLKSGTASVVCLLNNFYPREAKVQWKVDNALQSGNSQESVTEQDSKDSTYSLSSTLTLSKADYEKHKVYACEVTHQGLSSPVTKSFNRGEC
notes: DVD-Ig, N-term PlGF (AB047) / C-term VEGF (AB071); also called DVD599VH; DVD599VL
With B11, the IC50 in test [1] amounted to 3.19 nM.

B12: DVD471 (bispecific antibody, human IgG1, kappa, L234A L235A)
heavy: not shown
light: DIQMTQSPSSLSASVGDRVTITCRASQDVSTAVAWYQQKPGKAPKLLIYSASFLYSGVPSRFSGSGSGTDFTLTISSLQPEDFATTYYCQQSYTGTVTFGQGTKVEIKRTVAAPSVFIFPPDIQMTQSPSSLSASVGDRVTITCRASQDVSTAVAWYQQKPGKAPKLLIYSASFLYSGVPSRFSGSGSGTDFTLTISSLQPEDFATYYCQQSYTTPPTFGQGTKVEIKRTVAAPSVFIFPPSDEQLKSGTASVVCLLNNFYPREAKVQWKVDNALQSGNSQESVTEQDSKDSTYSLSSTLTLSKADYEKHKVYACEVTHQGLSSPVTKSFNRGEC
notes: DVD-Ig, HC long / LC long; DLL4 domain N-terminal; also called DLL4 / VEGF DVD-Ig; DVD471H
In the case of B12, the EC50 was found to be 0.56 nM in the test with biotinylated VEGF and 0.17 nM in test [2].

B13: DVD485 (bispecific antibody, human IgG1, kappa)
heavy: not shown
light: DIQMTQSPSSLSASVGDRVTITCRASQDVSTAVAWYQQKPGKAPKLLIYSASFLYSGVPSRFSGSGSGTDFTLTISSLQPEDFATTYYCQQSYTGTVTFGQGTKVEIKRTVAAPSVFIFPPDIQMTQSPSSLSASVGDRVTITCRASQVIRRSLAWYQQKPGKAPKLLIYAASNLASGVPSRFSGSGSGTDFTLTISSLQPEDFATYYCQQSNTSPLTFGQGTKVEIKRTVAAPSVFIFPPSDEQLKSGTASVVCLLNNFYPREAKVQWKVDNALQSGNSQESVTEQDSKDSTYSLSSTLTLSKADYEKHKVYACEVTHQGLSSPVTKSFNRGEC
notes: DVD-Ig, HC short / LC long; DLL4 domain N-terminal; also called DLL4 / VEGF DVD-Ig; DVD485H
B13: the EC50 came to 2.5 nM with biotinylated VEGF and 5.45 nM in test [2].

These data come from patent US20100260668A1 (published 2010).
